{
  "source": "paper PMC12077105",
  "about": "“PASTA kinase signaling regulates peptidoglycan synthesis in Enterococcus faecalis by direct inhibition of UDP-N-acetylglucosamine 1-carboxyvinyl transferase activity” (mBio, 2025)",
  "key": {"[1]": {"target": "recombinant MurAB-His6 (E. faecalis) (UniProt Q836E5)", "test": "thermal shift assay; 2.5 uM MurAB with rising molar ratios of test protein, 10x SYPRO Orange, 50 mM Tris, 25 mM NaCl, pH 7.5; change of the MurAB melt temperature"}, "recombinant MurAB-His6 [2]": {"target": "T1, recombinant MurAB-His6 (E. faecalis, UniProt Q836E5 1-430)", "T1 sequence": "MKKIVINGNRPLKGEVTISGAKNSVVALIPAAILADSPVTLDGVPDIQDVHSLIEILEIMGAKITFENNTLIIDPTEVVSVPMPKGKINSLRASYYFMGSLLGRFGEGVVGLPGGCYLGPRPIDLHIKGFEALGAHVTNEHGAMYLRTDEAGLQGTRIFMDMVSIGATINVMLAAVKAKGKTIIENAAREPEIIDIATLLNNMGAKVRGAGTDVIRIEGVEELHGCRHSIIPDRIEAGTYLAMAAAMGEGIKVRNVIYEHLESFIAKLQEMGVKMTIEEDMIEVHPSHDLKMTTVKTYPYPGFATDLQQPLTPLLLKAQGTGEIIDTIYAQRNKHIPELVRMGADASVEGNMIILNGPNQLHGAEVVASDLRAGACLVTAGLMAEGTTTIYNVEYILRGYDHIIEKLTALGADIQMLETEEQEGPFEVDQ", "test": "cell-based or functional assay"}, "recombinant MurAB-His6 [3]": {"target": "T1, recombinant MurAB-His6", "test": "thermal shift assay; 2.5 uM MurAB with rising molar ratios of test protein, 10x SYPRO Orange, 50 mM Tris, 25 mM NaCl, pH 7.5; change of the MurAB melt temperature", "conditions": "both partners purified"}},
  "data": [
    {"molecule": "purified recombinant IreB D50A (expressed as His6-SUMO-IreB D50A) (from UniProt Q836B3 1-89) (natural protein)", "values": [
      {"measurement": "maximum shift of the MurAB Tm", "setting": "[1]", "result": 1.5, "unit": "°C"}
    ]},
    {"molecule": "purified recombinant wild-type IreB (expressed as His6-SUMO-IreB) (natural protein, IreB of Enterococcus faecalis; wild-type allele amplified from OG1RF genomic DNA; IreB for the enzymatic assays was purified in MOPS buffer; also called unphosphorylated IreB; source: E. coli BL21(DE3), purified (Ni-charged resin)) MGFTDETVRFDFDDNRKKAISETLETVYRALEEKGYNPINQIVGYLLSGDPAYIPRYQDARNLIRRHERDEIMEELTKYYLANHGIDIK", "values": [
      {"measurement": "UNAG-CTase activity of purified MurAB (release of inorganic phosphate) with 10-fold molar excess of IreB: decrease of the reaction rate", "setting": "recombinant MurAB-His6 [2]", "result": "~25", "unit": "%"},
      {"measurement": "maximum shift of the MurAB Tm", "setting": "recombinant MurAB-His6 [3]", "result": 5, "unit": "°C"}
    ]}
  ]
}
